Measured values taken from paper PMC4486061 (Journal of Structural Biology, 2010).
Values joined by “and” are separate entries in the source; they are usually repeats but may differ in a detail not shown here. Equal values may be shown once.

Biological target: the molecule itself
Assay: PFO-PAGE

B1: SARS-CoV M protein endodomain, residues 107-221 (M_(107-221)) (domain or fragment)
chain: SMWSFNPETNILLNVPLRGTIVTRPLMESELVIGAVIIRGHLRMAGHSLGRCDIKDLPKEITVATSRTLSYYKLGASQRVGTDSGFAAYNRYRIGNYKLNTDHAGSNDNIALLVQ
stoichiometry N: 2 and 4 and 6
